System: pdt-tagged sfGFP

mf-Lon
signal decay of pdt-tagged sfGFP (protein degradation) on mixing extracts: Increasing the concentration of mf-Lon and supplying additional ATP (a co-substrate for the reaction) results in some signal decay
